Tests used:
[1] = target: T1, recombinant human SEMA4A AviHis10, biotinylated (human, UniProt Q9H3S1 33-683, biotin on the Avi tag (BirA)); assay: BLI (OctetRED), biotinylated SEMA4A on streptavidin tip, IgG as analyte, 1:1 model; KD(observed) IgG; human SEMA4A; IgG, not Fab
T1 construct: The text says amino acids 33-683 of Q9H3S1 with C-terminal Avi tag and His10 tag; also called avi-SEMA4A-His10
T1 sequence: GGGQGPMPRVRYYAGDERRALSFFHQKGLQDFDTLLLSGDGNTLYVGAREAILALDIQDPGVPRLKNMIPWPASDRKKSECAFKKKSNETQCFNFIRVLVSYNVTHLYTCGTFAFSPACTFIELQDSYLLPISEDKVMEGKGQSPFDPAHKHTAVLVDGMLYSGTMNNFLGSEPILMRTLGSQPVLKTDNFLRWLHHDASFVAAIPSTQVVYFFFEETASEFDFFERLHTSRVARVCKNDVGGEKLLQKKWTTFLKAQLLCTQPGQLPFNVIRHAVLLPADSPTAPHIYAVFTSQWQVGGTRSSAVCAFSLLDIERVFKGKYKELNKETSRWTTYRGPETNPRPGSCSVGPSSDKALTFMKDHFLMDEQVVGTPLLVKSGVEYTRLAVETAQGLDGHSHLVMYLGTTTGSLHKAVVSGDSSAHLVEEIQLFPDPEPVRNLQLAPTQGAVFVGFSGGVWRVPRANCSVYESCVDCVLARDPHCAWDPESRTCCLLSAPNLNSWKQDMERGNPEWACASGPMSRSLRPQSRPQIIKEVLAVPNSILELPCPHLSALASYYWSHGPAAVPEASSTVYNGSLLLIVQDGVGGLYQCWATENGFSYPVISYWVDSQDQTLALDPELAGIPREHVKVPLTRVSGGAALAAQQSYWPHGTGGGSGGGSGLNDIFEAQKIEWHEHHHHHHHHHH
Method: An Octet Kinetics buffer (PBS containing 0.01% (v/v) BSA and 0.002% (v/v) Tween20) is typically used as the diluent buffer for the analyte samples and as the flow buffer during the dissociation phase. The experimental data is recorded as shift in interference pattern (nm) over time, which is directly proportional to the optical thickness at the biosensor tip, which in turn is an approximate measure of the mass of analyte bound. The proprietary Octet Data Analysis software package can then be used to process data and fit binding models to the data sets. Returned association (ka, M-1 s-1) and dissociation (kd, s-1) rate constants allow calculation of dissociation (KD, M) affinity constants.
The affinity of binding between the analytes (humanised and phage display derived IgGs as human Alya IgG1s and Fabs) and human SEMA4A and cynomolgus SEMA4A, was estimated using assays in which the biotinylated SEMA4A antigen was captured on a streptavidin sensor tip. A fresh sensor tip was used for each measurement and no regeneration was used. A series of dilutions of the lead Fabs and human Alya IgG1s (3.25-240 nM) were individually placed in contact with the ligand surface for a sufficient amount of time to observe sensorgrams that could be fitted to an appropriate binding model with confidence (typically 5 minutes), followed by an appropriate length of dissociation time (typically 10 minutes). […]

[2] = target: T2, cynomolgus SEMA4A expressed on expi293 cells (UniProt ID G7NV79) (cynomolgus, UniProt Q9H3S1 33-761 (human entry)); assay: Mirrorball direct binding, dilution series on expi293 cells transiently transfected with cynomolgus SEMA4A, anti-human Alexa Fluor 647
T2 construct: Transient transfection in expi293 cells; also called cyno SEMA4A
T2 chain: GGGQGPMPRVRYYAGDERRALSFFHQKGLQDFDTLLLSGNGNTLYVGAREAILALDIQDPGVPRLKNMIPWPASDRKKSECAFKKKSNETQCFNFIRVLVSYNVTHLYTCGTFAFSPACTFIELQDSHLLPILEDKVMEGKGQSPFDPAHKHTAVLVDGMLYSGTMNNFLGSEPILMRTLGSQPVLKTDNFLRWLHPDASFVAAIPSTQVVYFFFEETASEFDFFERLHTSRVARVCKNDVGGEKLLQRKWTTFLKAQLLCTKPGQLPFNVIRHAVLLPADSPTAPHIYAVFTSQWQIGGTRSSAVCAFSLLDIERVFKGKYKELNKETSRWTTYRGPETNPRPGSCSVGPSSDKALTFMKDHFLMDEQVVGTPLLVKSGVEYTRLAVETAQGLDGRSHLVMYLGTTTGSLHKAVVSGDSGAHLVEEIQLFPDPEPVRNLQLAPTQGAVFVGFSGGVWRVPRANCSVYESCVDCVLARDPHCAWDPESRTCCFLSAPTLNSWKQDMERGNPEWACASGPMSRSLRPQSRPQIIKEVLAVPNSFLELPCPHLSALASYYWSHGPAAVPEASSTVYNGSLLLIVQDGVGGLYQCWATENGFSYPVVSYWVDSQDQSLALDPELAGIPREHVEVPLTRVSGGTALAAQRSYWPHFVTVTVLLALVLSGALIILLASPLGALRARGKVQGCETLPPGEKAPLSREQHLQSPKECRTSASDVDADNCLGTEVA
From the text: Hits from the primary screening were re-formatted into the human Alya IgG1 vector and re-expressed and purified as described in section 4.1. In addition, a single clone was identified that contained an Asparagine deamidation motif (Asn Gly) within its VHCDR2. This potential sequence liability was de-risked by synthesising de novo two clonal variant VH genes (Asn Ala and Gln Gly) and cloning these sequences into the human Alya IgG1 expression vector. To determine the specificity profile of each purified human Alya IgG1, a dilution series was tested for binding to human SEMA4A, mouse SEMA4A, cyno SEMA4A, human SEMA4B and mock transfected cells (transient transfections set up in expi 293 cells.) The five assays employed methods described in section 2.3, using the appropriate cells and substituting the un-purified scFv periplasmic preparation with the recombinant human Alya IgG1 dilution series. Data was analysed as Count x median mean intensity (x FLU).

B1: mouse 5E3 expressed as human IgG1 Alya (antibody, V domains shown)
VH: QVQLQQPGAELVMPGASVKMSCKASGYTFTDYWMHWVKQRPGQGLEWIGAIDTSDSYTSYNQKFKGKATLTVDESSSTAYMQLSSLTSEDSAVYYCARDYGNFYYYAMDYWGQGTSVTVSS
VL: QAVVTQESALTTSPGETVTLTCRSSTGAVTTSNYANWVQEKPDHLFTGLIGGTNNRAPGVPARFSGSLIGDKAALTITGAQTEDEAIYFCALWYSNHWVFGGGTKLTVL
notes: Mouse variable domains on human IgG1 Alya constant (pEU1.22; 239iCys and S442C, EU numbering); purified, unconjugated; also called 5E3 IgG1 Alya
- Kd [1]: ≤ 1 nM
- binding result [2]: binds
